B1: 4G8.3-SL-9E8.4E (PR-1575834) (bispecific antibody, human IgG1, kappa, L234A L235A)
heavy: EVQLVQSGSELKKPGASVKVSCKASGYTFTNYGMYWVRQAPGQGLEWMGWINTETGKPTYADDFKGRFVFSLDTSVSTAYLQISSLKAEDTAVYYCARTNYYYRSYIFYFDYWGQGTMVTVSSASTKGPEVTLRESGPALVKPTQTLTLTCTFSGFSLSTYGMGVGWIRQPPGKALEWLANIWWDDDKYYNPSLKNRLTISKDTSKNQVVLTMTNMDPVDTATYYCARIESIGTTYSFDYWGQGTMVTVSSASTKGPSVFPLAPSSKSTSGGTAALGCLVKDYFPEPVTVSWNSGALTSGVHTFPAVLQSSGLYSLSSVVTVPSSSLGTQTYICNVNHKPSNTKVDKKVEPKSCDKTHTCPPCPAPEAAGGPSVFLFPPKPKDTLMISRTPEVTCVVVDVSHEDPEVKFNWYVDGVEVHNAKTKPREEQYNSTYRVVSVLTVLHQDWLNGKEYKCKVSNKALPAPIEKTISKAKGQPREPQVYTLPPSREEMTKNQVSLTCLVKGFYPSDIAVEWESNGQPENNYKTTPPVLDSDGSFFLYSKLTVDKSRWQQGNVFSCSVMHEALHNAYTQKSLSLSPGK
light: DTVLTQSPATLSLSPGERATLSCRASESVSTHMHWYQQKPGQAPRLLIYGASNLESGVPARFSGSGSGTDFTLTISSLEPEDFAVYFCQQSWNDPFTFGQGTKLEIKRTVAAPSVFIFPPEFVLTQSPGTLSLSPGERATLSCERSSGDIGESYVSWYQQKPGQAPRLVIYADDQRPSGIPDRFSGSGSGTDFTLTISRLEPEDFAVYYCQSYDINIDIVFGGGTKVEIKRTVAAPSVFIFPPSDEQLKSGTASVVCLLNNFYPREAKVQWKVDNALQSGNSQESVTEQDSKDSTYSLSSTLTLSKADYEKHKVYACEVTHQGLSSPVTKSFNRGEC
notes: DVD-Ig: outer hBDB-4G8.3 (VEGF), inner hBDI-9E8.4E (PDGF), linkers HG-short/LK-long; Human IgG1 L234A, L235A, H435A with kappa
B2: 9A8.12-GS-9E8.4E (PR-1577165) (bispecific antibody, human IgG1, kappa, L234A L235A)
heavy: EVQLVQSGAEVKKPGASVKVSCKASGYTFTNYGMYWVRQAPGQGLEWMGWINTETGKPIYADDFKGRVTMTTDTSTSTAYMELRSLRSDDTAVYYCARVDYDGSFWFAYWGQGTLVTVSSGGGGSGGGGSEVTLRESGPALVKPTQTLTLTCTFSGFSLSTYGMGVGWIRQPPGKALEWLANIWWDDDKYYNPSLKNRLTISKDTSKNQVVLTMTNMDPVDTATYYCARIESIGTTYSFDYWGQGTMVTVSSASTKGPSVFPLAPSSKSTSGGTAALGCLVKDYFPEPVTVSWNSGALTSGVHTFPAVLQSSGLYSLSSVVTVPSSSLGTQTYICNVNHKPSNTKVDKKVEPKSCDKTHTCPPCPAPEAAGGPSVFLFPPKPKDTLMISRTPEVTCVVVDVSHEDPEVKFNWYVDGVEVHNAKTKPREEQYNSTYRVVSVLTVLHQDWLNGKEYKCKVSNKALPAPIEKTISKAKGQPREPQVYTLPPSREEMTKNQVSLTCLVKGFYPSDIAVEWESNGQPENNYKTTPPVLDSDGSFFLYSKLTVDKSRWQQGNVFSCSVMHEALHNAYTQKSLSLSPGK
light: DTQLTQSPSSLSASVGDRVTITCRASESVSTVIHWYQQKPGKQPKLLIHGASNLESGVPSRFSGSGSGTDFTLTISSLQPEDFATYFCQQHWNDPPTFGQGTKLEIKRGGSGGGGSGEFVLTQSPGTLSLSPGERATLSCERSSGDIGESYVSWYQQKPGQAPRLVIYADDQRPSGIPDRFSGSGSGTDFTLTISRLEPEDFAVYYCQSYDINIDIVFGGGTKVEIKRTVAAPSVFIFPPSDEQLKSGTASVVCLLNNFYPREAKVQWKVDNALQSGNSQESVTEQDSKDSTYSLSSTLTLSKADYEKHKVYACEVTHQGLSSPVTKSFNRGEC
notes: DVD-Ig: outer hBEW-9A8.12 (VEGF), inner hBDI-9E8.4E (PDGF), linkers GS-H10/GS-L10; Human IgG1 L234A, L235A, H435A with kappa
B3: 9A8.12-LS-9E8.4E (PR-1577547) (bispecific antibody, human IgG1, kappa, L234A L235A)
heavy: EVQLVQSGAEVKKPGASVKVSCKASGYTFTNYGMYWVRQAPGQGLEWMGWINTETGKPIYADDFKGRVTMTTDTSTSTAYMELRSLRSDDTAVYYCARVDYDGSFWFAYWGQGTLVTVSSASTKGPSVFPLAPEVTLRESGPALVKPTQTLTLTCTFSGFSLSTYGMGVGWIRQPPGKALEWLANIWWDDDKYYNPSLKNRLTISKDTSKNQVVLTMTNMDPVDTATYYCARIESIGTTYSFDYWGQGTMVTVSSASTKGPSVFPLAPSSKSTSGGTAALGCLVKDYFPEPVTVSWNSGALTSGVHTFPAVLQSSGLYSLSSVVTVPSSSLGTQTYICNVNHKPSNTKVDKKVEPKSCDKTHTCPPCPAPEAAGGPSVFLFPPKPKDTLMISRTPEVTCVVVDVSHEDPEVKFNWYVDGVEVHNAKTKPREEQYNSTYRVVSVLTVLHQDWLNGKEYKCKVSNKALPAPIEKTISKAKGQPREPQVYTLPPSREEMTKNQVSLTCLVKGFYPSDIAVEWESNGQPENNYKTTPPVLDSDGSFFLYSKLTVDKSRWQQGNVFSCSVMHEALHNAYTQKSLSLSPGK
light: DTQLTQSPSSLSASVGDRVTITCRASESVSTVIHWYQQKPGKQPKLLIHGASNLESGVPSRFSGSGSGTDFTLTISSLQPEDFATYFCQQHWNDPPTFGQGTKLEIKRTVAAPEFVLTQSPGTLSLSPGERATLSCERSSGDIGESYVSWYQQKPGQAPRLVIYADDQRPSGIPDRFSGSGSGTDFTLTISRLEPEDFAVYYCQSYDINIDIVFGGGTKVEIKRTVAAPSVFIFPPSDEQLKSGTASVVCLLNNFYPREAKVQWKVDNALQSGNSQESVTEQDSKDSTYSLSSTLTLSKADYEKHKVYACEVTHQGLSSPVTKSFNRGEC
notes: DVD-Ig: outer hBEW-9A8.12 (VEGF), inner hBDI-9E8.4E (PDGF), linkers HG-long/LK-short; Human IgG1 L234A, L235A, H435A with kappa
B4: 9E8.4E-SL-9A8.12 (PR-1577548) (bispecific antibody, human IgG1, kappa, L234A L235A)
heavy: EVTLRESGPALVKPTQTLTLTCTFSGFSLSTYGMGVGWIRQPPGKALEWLANIWWDDDKYYNPSLKNRLTISKDTSKNQVVLTMTNMDPVDTATYYCARIESIGTTYSFDYWGQGTMVTVSSASTKGPEVQLVQSGAEVKKPGASVKVSCKASGYTFTNYGMYWVRQAPGQGLEWMGWINTETGKPIYADDFKGRVTMTTDTSTSTAYMELRSLRSDDTAVYYCARVDYDGSFWFAYWGQGTLVTVSSASTKGPSVFPLAPSSKSTSGGTAALGCLVKDYFPEPVTVSWNSGALTSGVHTFPAVLQSSGLYSLSSVVTVPSSSLGTQTYICNVNHKPSNTKVDKKVEPKSCDKTHTCPPCPAPEAAGGPSVFLFPPKPKDTLMISRTPEVTCVVVDVSHEDPEVKFNWYVDGVEVHNAKTKPREEQYNSTYRVVSVLTVLHQDWLNGKEYKCKVSNKALPAPIEKTISKAKGQPREPQVYTLPPSREEMTKNQVSLTCLVKGFYPSDIAVEWESNGQPENNYKTTPPVLDSDGSFFLYSKLTVDKSRWQQGNVFSCSVMHEALHNAYTQKSLSLSPGK
light: EFVLTQSPGTLSLSPGERATLSCERSSGDIGESYVSWYQQKPGQAPRLVIYADDQRPSGIPDRFSGSGSGTDFTLTISRLEPEDFAVYYCQSYDINIDIVFGGGTKVEIKRTVAAPSVFIFPPDTQLTQSPSSLSASVGDRVTITCRASESVSTVIHWYQQKPGKQPKLLIHGASNLESGVPSRFSGSGSGTDFTLTISSLQPEDFATYFCQQHWNDPPTFGQGTKLEIKRTVAAPSVFIFPPSDEQLKSGTASVVCLLNNFYPREAKVQWKVDNALQSGNSQESVTEQDSKDSTYSLSSTLTLSKADYEKHKVYACEVTHQGLSSPVTKSFNRGEC
notes: DVD-Ig: outer hBDI-9E8.4E (PDGF), inner hBEW-9A8.12 (VEGF), linkers HG-short/LK-long; Human IgG1 L234A, L235A, H435A with kappa
B5: 9A8.12-SL-9E8.4E (PR-1577166) (bispecific antibody, human IgG1, kappa, L234A L235A)
heavy: EVQLVQSGAEVKKPGASVKVSCKASGYTFTNYGMYWVRQAPGQGLEWMGWINTETGKPIYADDFKGRVTMTTDTSTSTAYMELRSLRSDDTAVYYCARVDYDGSFWFAYWGQGTLVTVSSASTKGPEVTLRESGPALVKPTQTLTLTCTFSGFSLSTYGMGVGWIRQPPGKALEWLANIWWDDDKYYNPSLKNRLTISKDTSKNQVVLTMTNMDPVDTATYYCARIESIGTTYSFDYWGQGTMVTVSSASTKGPSVFPLAPSSKSTSGGTAALGCLVKDYFPEPVTVSWNSGALTSGVHTFPAVLQSSGLYSLSSVVTVPSSSLGTQTYICNVNHKPSNTKVDKKVEPKSCDKTHTCPPCPAPEAAGGPSVFLFPPKPKDTLMISRTPEVTCVVVDVSHEDPEVKFNWYVDGVEVHNAKTKPREEQYNSTYRVVSVLTVLHQDWLNGKEYKCKVSNKALPAPIEKTISKAKGQPREPQVYTLPPSREEMTKNQVSLTCLVKGFYPSDIAVEWESNGQPENNYKTTPPVLDSDGSFFLYSKLTVDKSRWQQGNVFSCSVMHEALHNAYTQKSLSLSPGK
light: DTQLTQSPSSLSASVGDRVTITCRASESVSTVIHWYQQKPGKQPKLLIHGASNLESGVPSRFSGSGSGTDFTLTISSLQPEDFATYFCQQHWNDPPTFGQGTKLEIKRTVAAPSVFIFPPEFVLTQSPGTLSLSPGERATLSCERSSGDIGESYVSWYQQKPGQAPRLVIYADDQRPSGIPDRFSGSGSGTDFTLTISRLEPEDFAVYYCQSYDINIDIVFGGGTKVEIKRTVAAPSVFIFPPSDEQLKSGTASVVCLLNNFYPREAKVQWKVDNALQSGNSQESVTEQDSKDSTYSLSSTLTLSKADYEKHKVYACEVTHQGLSSPVTKSFNRGEC
notes: DVD-Ig: outer hBEW-9A8.12 (VEGF), inner hBDI-9E8.4E (PDGF), linkers HG-short/LK-long; Human IgG1 L234A, L235A, H435A with kappa

What follows are binders tested against T1, PDGF-BB (human, UniProt P01127 82-190, limits assumed) (assay: Biacore SPR; DVD-Ig captured on anti-human Fc, antigen injected).
T1 construct: also called human PDGF-BB; hPDGF-BB
T1 sequence (P01127 82-190 limits assumed): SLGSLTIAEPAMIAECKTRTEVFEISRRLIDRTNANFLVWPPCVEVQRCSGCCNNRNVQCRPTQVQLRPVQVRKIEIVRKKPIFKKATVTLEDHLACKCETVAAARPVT
Method: (§1) For example, approximately 9000 RU of goat anti-human Fc specific polyclonal antibody (Thermo Fisher Scientific Inc., Rockford, Ill.) diluted in 10 mM sodium acetate (pH 4.5) is directly immobilized across a CM5 research grade biosensor chip using a standard amine coupling kit according to manufacturer's instructions and procedures at 25 μg/ml. Unreacted moieties on the biosensor surface were blocked with ethanolamine. For kinetic analysis, rate equations derived from the 1:1 Langmuir binding model were fitted simultaneously to multiple antigen injections (using global fit analysis) with the use of Scrubber 2 (BioLogic Software), Biacore Biaevaluation 4.0.1 software or Biacore T100 Evaluation software. Purified antibodies or DVD-Ig molecules were diluted in running buffer for capture across goat anti-human Fc reaction surfaces. Antibodies or DVD-Ig molecules to be captured as a ligand (1 μg/ml) were injected over reaction matrices at a flow rate of 10 μl/minute. During the assay, all measurements were referenced against the capture surface alone (i.e., with no captured antibody or DVD-Ig molecule). […] The equilibrium dissociation constant KD (M) of the reaction between antibodies and the target antigen was then calculated from the kinetic rate constants by the following formula: KD=Koff/Kₒₙ. Binding was recorded as a function of time and kinetic rate constants were calculated.
A Kd of 0.015 nM and a kon of 1.7e+07 M⁻¹ s⁻¹ were found for B1 in this work. A Kd of 0.0081 nM and a kon of 3.3e+07 M⁻¹ s⁻¹ were found for B2 in this work. A Kd of 0.0065 nM and a kon of 3.6e+07 M⁻¹ s⁻¹ were found for B3 in this work. A Kd of 0.0064 nM and a kon of 5e+07 M⁻¹ s⁻¹ were found for B4 in this work. A Kd of 0.0083 nM and a kon of 2.7e+07 M⁻¹ s⁻¹ were found for B5 in this work.

These binders were tested against T2, VEGF-A (human, UniProt P15692 207-395) in the same assay as above.
T2 construct: also called hVEGF165
T2 sequence (P15692 other isoform, or with tags, fused parts or gaps limits assumed): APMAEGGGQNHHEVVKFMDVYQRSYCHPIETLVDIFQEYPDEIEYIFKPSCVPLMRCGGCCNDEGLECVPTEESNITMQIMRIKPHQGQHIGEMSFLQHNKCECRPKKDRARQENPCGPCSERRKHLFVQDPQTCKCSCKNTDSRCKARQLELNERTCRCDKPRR
Method: as §1
A Kd of 0.01 nM and a kon of 6.2e+06 M⁻¹ s⁻¹ were found for B1 in this work. A Kd of 0.18 nM and a kon of 770000 M⁻¹ s⁻¹ were found for B2 in this work. A Kd of 0.35 nM and a kon of 270000 M⁻¹ s⁻¹ were found for B3 in this work. A Kd of 0.16 nM and a kon of 2.2e+06 M⁻¹ s⁻¹ were found for B4 in this work. A Kd of 0.47 nM and a kon of 250000 M⁻¹ s⁻¹ were found for B5 in this work.

From patent US20170015742A1 (published 2017)
